B1: Small glutamine-rich tetratricopeptide repeat-containing protein beta (Homo sapiens), Q96EQ0 (parent)
chain: MSSIKHLVYAVIRFLREQSQMDTYTSDEQESLEVAIQCLETVFKISPEDTHLAVSQPLTEMFTSSFCKNDVLPLSNSVPEDVGKADQLKDEGNNHMKEENYAAAVDCYTQAIELDPNNAVYYCNRAAAQSKLGHYTDAIKDCEKAIAIDSKYSKAYGRMGLALTALNKFEEAVTSYQKALDLDPENDSYKSNLKIAEQKLREVSSPTGTGLSFDMASLINNPAFISMAASLMQNPQVQQLMSGMMTNAIGGPAAGVGGLTDLSSLIQAGQQFAQQIQQQNPELIEQLRNHIRSRSFSSSAEEHS
B2: Protein arginine N-methyltransferase 8 (Homo sapiens), Q9NR22 (parent)
chain: MGMKHSSRCLLLRRKMAENAAESTEVNSPPSQPPQPVVPAKPVQCVHHVSTQPSCPGRGKMSKLLNPEEMTSRDYYFDSYAHFGIHEEMLKDEVRTLTYRNSMYHNKHVFKDKVVLDVGSGTGILSMFAAKAGAKKVFGIECSSISDYSEKIIKANHLDNIITIFKGKVEEVELPVEKVDIIISEWMGYCLFYESMLNTVIFARDKWLKPGGLMFPDRAALYVVAIEDRQYKDFKIHWWENVYGFDMTCIRDVAMKEPLVDIVDPKQVVTNACLIKEVDIYTVKTEELSFTSAFCLQIQRNDYVHALVTYFNIEFTKCHKKMGFSTAPDAPYTHWKQTVFYLEDYLTVRRGEEIYGTISMKPNAKNVRDLDFTVDLDFKGQLCETSVSNDYKMR
partner: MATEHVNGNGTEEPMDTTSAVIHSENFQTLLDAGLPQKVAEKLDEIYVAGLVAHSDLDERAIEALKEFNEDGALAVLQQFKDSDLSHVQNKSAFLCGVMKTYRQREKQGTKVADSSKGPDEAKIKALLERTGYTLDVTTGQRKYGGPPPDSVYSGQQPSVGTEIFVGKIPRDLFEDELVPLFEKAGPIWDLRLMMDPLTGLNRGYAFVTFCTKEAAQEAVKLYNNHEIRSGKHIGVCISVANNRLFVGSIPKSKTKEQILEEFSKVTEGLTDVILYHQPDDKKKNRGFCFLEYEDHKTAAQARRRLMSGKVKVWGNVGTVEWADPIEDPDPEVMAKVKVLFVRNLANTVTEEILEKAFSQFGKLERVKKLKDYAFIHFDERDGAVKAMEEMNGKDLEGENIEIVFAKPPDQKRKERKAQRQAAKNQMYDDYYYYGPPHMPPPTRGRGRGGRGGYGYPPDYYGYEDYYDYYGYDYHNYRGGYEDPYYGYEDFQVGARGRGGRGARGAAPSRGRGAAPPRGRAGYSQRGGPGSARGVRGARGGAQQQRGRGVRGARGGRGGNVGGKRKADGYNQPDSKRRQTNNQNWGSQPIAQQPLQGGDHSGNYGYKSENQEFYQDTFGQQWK
B3: TBC1 domain family member 22B (Homo sapiens), Q9NU19 (parent)
chain: MAAENSKQFWKRSAKLPGSIQPVYGAQHPPLDPRLTKNFIKERSKVNTVPLKNKKASSFHEFARNTSDAWDIGDDEEEDFSSPSFQTLNSKVALATAAQVLENHSKLRVKPERSQSTTSDVPANYKVIKSSSDAQLSRNSSDTCLRNPLHKQQSLPLRPIIPLVARISDQNASGAPPMTVREKTRLEKFRQLLSSQNTDLDELRKCSWPGVPREVRPITWRLLSGYLPANTERRKLTLQRKREEYFGFIEQYYDSRNEEHHQDTYRQIHIDIPRTNPLIPLFQQPLVQEIFERILFIWAIRHPASGYVQGINDLVTPFFVVFLSEYVEEDVENFDVTNLSQDMLRSIEADSFWCMSKLLDGIQDNYTFAQPGIQKKVKALEELVSRIDEQVHNHFRRYEVEYLQFAFRWMNNLLMRELPLRCTIRLWDTYQSEPEGFSHFHLYVCAAFLIKWRKEILDEEDFQGLLMLLQNLPTIHWGNEEIGLLLAEAYRLKYMFADAPNHYRR
partner: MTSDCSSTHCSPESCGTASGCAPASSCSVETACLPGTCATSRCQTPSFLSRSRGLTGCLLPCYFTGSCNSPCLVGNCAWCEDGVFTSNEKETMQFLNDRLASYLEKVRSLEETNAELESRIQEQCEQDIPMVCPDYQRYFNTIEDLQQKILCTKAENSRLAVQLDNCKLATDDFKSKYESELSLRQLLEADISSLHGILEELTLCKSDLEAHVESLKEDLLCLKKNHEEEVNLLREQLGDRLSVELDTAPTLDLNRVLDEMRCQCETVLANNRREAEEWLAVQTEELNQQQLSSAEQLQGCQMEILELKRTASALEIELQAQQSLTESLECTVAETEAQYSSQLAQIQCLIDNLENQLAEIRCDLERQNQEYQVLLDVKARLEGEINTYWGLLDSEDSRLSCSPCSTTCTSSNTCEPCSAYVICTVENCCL
B4: Chorion-specific transcription factor GCMb (Homo sapiens), O75603 (parent)
chain: MPAAAVQEAVGVCSYGMQLSWDINDPQMPQELALFDQFREWPDGYVRFIYSSDEKKAQRHLSGWAMRNTNNHNGHILKKSCLGVVVCTQACTLPDGSRLQLRPAICDKARLKQQKKACPNCHSALELIPCRGHSGYPVTNFWRLDGNAIFFQAKGVHDHPRPESKSETEARRSAIKRQMASFYQPQKKRIRESEAEENQDSSGHFSNIPPLENPEDFDIVTETSFPIPGQPCPSFPKSDVYKATCDLATFQGDKMPPFQKYSSPRIYLPRPPCSYELANPGYTNSSPYPTLYKDSTSIPNDTDWVHLNTLQCNVNSYSSYERSFDFTNKQHGWKPALGKPSLVERTNHGQFQAMATRPYYNPELPCRYLTTPPPGAPALQTVITTTTKVSYQAYQPPAMKYSDSVREVKSLSSCNYAPEDTGMSVYPEPWGPPVTVTRAASPSGPPPMKIAGDCRAIRPTVAIPHEPVSSRTDEAETWDVCLSGLGSAVSYSDRVGPFFTYNNEDF
partner: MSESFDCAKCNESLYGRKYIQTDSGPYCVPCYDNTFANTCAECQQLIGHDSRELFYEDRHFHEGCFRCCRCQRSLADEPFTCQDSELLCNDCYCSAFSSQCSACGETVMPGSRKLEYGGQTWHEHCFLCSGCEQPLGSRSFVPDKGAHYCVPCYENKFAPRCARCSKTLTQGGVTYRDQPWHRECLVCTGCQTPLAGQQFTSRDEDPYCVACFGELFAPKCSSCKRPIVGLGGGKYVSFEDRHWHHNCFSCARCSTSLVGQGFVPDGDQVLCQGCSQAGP
B5: Ras suppressor protein 1 (Homo sapiens), Q15404 (parent)
chain: MSKSLKKLVEESREKNQPEVDMSDRGISNMLDVNGLFTLSHITQLVLSHNKLTMVPPNIAELKNLEVLNFFNNQIEELPTQISSLQKLKHLNLGMNRLNTLPRGFGSLPALEVLDLTYNNLSENSLPGNFFYLTTLRALYLSDNDFEILPPDIGKLTKLQILSLRDNDLISLPKEIGELTQLKELHIQGNRLTVLPPELGNLDLTGQKQVFKAENNPWVTPIADQFQLGVSHVFEYIRSETYKYLYGRHMQANPEPPKKNNDKSKKISRKPLAAKNR

In one test the parent is B1. The conditions noted are these: with fbln4_human EFEMP2, O95967.
fbln4_human EFEMP2, O95967, sequence (O95967 whole entry): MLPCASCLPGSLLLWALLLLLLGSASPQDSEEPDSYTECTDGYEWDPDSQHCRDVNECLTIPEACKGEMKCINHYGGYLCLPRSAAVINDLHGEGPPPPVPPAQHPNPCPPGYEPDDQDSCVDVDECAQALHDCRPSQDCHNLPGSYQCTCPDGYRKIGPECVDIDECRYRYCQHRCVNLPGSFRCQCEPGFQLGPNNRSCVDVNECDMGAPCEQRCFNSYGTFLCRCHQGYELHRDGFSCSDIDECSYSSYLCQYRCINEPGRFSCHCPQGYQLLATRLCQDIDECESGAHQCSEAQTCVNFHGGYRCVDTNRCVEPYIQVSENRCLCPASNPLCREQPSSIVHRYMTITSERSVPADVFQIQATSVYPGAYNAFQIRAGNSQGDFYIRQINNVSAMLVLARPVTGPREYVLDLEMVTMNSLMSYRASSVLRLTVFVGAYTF
For R292W, the “effect of a mutation on the interaction” value is on record as “with no effect”.

Variants of B1 are the subject of the next test. The conditions noted are these: with il6rb_human IL6ST.
Consider R292W, for which the “effect of a mutation on the interaction” value was “disrupting interaction strength”.

In a further test the parent is B2. The following applies: with hnrpq_human SYNCRIP.
Regarding R350S, the “effect of a mutation on the interaction” value is “with no effect”.

Variants of B3 are the subject of the next test. The conditions noted are these: with KRT40, Q6A162.
With A349T, the “effect of a mutation on the interaction” value is recorded as “disrupting interaction strength”.

The next test covers variants of B4. The conditions noted are these: with fhl3_human FHL3, Q13643.
As to G349E, the “effect of a mutation on the interaction” value is on record as “with no effect”.

The variants in a further test derive from B5. The following applies: with lims1_human LIMS1, P48059.
lims1_human LIMS1, P48059, sequence (P48059 whole entry): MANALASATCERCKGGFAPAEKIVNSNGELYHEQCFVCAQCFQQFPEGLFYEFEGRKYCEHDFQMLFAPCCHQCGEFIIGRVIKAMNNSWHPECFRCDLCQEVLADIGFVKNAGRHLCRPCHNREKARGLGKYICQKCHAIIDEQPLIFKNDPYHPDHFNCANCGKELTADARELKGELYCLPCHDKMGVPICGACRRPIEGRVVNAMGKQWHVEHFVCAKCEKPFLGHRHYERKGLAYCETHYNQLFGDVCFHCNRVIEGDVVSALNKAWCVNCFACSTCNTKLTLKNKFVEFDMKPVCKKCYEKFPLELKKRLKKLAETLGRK
With P57L, the “effect of a mutation on the interaction” value is listed as “disrupting interaction strength”.

Values taken from IntAct's records for PubMed 29892012.
